These results are taken from paper PMC6007377.

The series addresses TDG N140A (human, UniProt Q13569 1-410, N140A). The experiment in a line: fluorescence anisotropy. In general terms: Polarisation of emitted light reports the rotation of a fluorescent probe.

Chain of TDG N140A (Q13569 whole entry N140A): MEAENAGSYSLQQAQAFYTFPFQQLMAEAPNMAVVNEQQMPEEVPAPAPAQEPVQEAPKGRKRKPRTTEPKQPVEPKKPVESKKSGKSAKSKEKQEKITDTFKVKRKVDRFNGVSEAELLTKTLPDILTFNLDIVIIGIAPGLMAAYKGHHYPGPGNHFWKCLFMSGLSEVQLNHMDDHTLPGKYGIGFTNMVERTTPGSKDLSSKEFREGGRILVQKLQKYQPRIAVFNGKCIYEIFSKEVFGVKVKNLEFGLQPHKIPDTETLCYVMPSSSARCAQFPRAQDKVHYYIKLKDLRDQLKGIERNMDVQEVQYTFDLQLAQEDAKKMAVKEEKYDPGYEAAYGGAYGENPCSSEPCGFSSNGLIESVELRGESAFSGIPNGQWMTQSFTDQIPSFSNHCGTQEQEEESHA

B1: G·fC 28mer (TR) (dsDNA)
DNA 1: GTGTCACCACTGCTCACGTACAGAGCTG
DNA 2: CAGCTCTGTACGTGAGCAGTGGTGACAC
modifications: 5-formylcytosine at position 17 of strand 1, paired with G
B1 had a Kd of 4 ± 0.8 nM.

B2: G·caC 28mer (TR) (dsDNA)
DNA 1: GTGTCACCACTGCTCACGTACAGAGCTG
DNA 2: CAGCTCTGTACGTGAGCAGTGGTGACAC
modifications: 5-carboxylcytosine at position 17 of strand 1, paired with G
B2 had a Kd of 2.3 ± 0.6 nM.

In general, Kd refers to the free concentration of one partner at which half of the binding sites on the other are occupied at equilibrium, for simple one-to-one binding. Read a high Kd as lower affinity.
